Paper PMC5824358

Biological target: T1, 65K C-RRM WT untagged (UniProt Q96LT9 381-516)
T1 sequence: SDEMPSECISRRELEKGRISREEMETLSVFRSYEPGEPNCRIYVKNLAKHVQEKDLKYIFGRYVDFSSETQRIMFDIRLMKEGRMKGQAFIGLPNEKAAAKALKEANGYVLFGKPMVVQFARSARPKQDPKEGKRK
Assay: NMR chemical shift perturbation

**Q.** Does CCCGCCUACUUUGCGGG (structured_RNA) [U12 oligo] bind?
**A.** binds
